Results as given in US20220324971A1 (AKESO BIOPHARMA, published 2022).

Columns and labels:
human CD47 IgV TEV-His [1] = biological target: T1, human CD47 IgV TEV-His (human, UniProt Q08722 19-141); test: Fortebio BLI, antibody amine-coupled to AR2G sensor, antigen 3.125-100 nM
T1 construct: range 19-141; Recombinant fusion protein synthesized by Akeso; residue numbers count on NP_942088.1; not shown: his tag

[2] = biological target: T2, CD47 on the cell membrane surface of human cells (normal human RBCs, Raji, LOVO) (human, UniProt Q08722 19-323); test: flow cytometry competition vs SIRPα-ECD-mFc 20 nM on Raji cells
T2 construct: whole, on cells; also called CD47 on the cell membrane surface of normal human RBCs; CD47 on the cell membrane surface of Raji cells
Description: Raji cells in the log phase were routinely collected, centrifuged and washed. The cell pellets were resuspended in 1% PBSA and counted, and the viability was determined. The cell concentration was adjusted with 1% PBSA into a suitable range, and the cells were transferred in groups into 1.5 mL tubes at 500 μL per tube, for a total of 0.3 million cells. The cells were centrifuged at 5600 rpm for 5 min, and the supernatant was discarded. The antibody serially diluted was added (final concentrations in descending order: 1, 0.3, 0.1, 0.01, 0.001, 0.0001 nM), and a blank control (100 μL of 1% PBSA+ cells) and an isotype control (human hIgG) were set up, followed by incubation on ice for 30 min. […] 1% PBSA was added, followed by centrifugation at 5600 rpm for 5 min, and the supernatant was discarded. 100 μL of FITC goat anti-mouse IgG (1:500 dilution) was added to each tube, followed by incubation on ice for 40 min in the dark. 500 μL of 1% PBSA was added, followed by centrifugation at 5600 rpm for 5 min, and the supernatant was discarded. 200 μL of 1% PBSA was added to resuspend the cell pellets. Fluorescence signals were detected with FITC channel on a flow cytometer.

[3] = biological target: T2, CD47 on the cell membrane surface of …; test: flow cytometry on LOVO cells
Description: The cell pellets were resuspended in 500 μL of 1% PBSA and counted, and the viability was determined. The cells were transferred to 1.5 mL tubes according to 3.0×10⁵ cells/500 μL/tube, and centrifuged at 5600 rpm for 5 min, and the supernatant was discarded. […] Then 500 μL of 1% PBSA was added, followed by centrifugation at 5600 rpm for 5 min, and the supernatant was discarded. 100 μL of FITC goat anti-human IgG (1:500) was added to each tube, and the mixtures were well mixed and incubated on ice for 30 min in the dark. 500 μL of 1% PBSA was added, followed by centrifugation at 5600 rpm for 5 min, and the supernatant was discarded. 200 μL of 1% PBSA was added to each tube to resuspend the cells, and the suspensions were transferred to flow cytometry tubes and detected by a flow cytometer BD FACSCalibur. The results were analyzed using Flowing software, and curve fittings were performed separately using MFI and sample concentration on GraphPad prism 5 to calculate EC50.

human CD47 IgV TEV-His [4] = biological target: T1, human CD47 IgV TEV-His; test: Biacore SPR, CD47 IgV-TEV-His amine-coupled to chip, antibody 0.78-12.5 nM, 1:1 model
Description: The buffer solution was PBST. […] The antibody and human CD47 were subjected to dissociation for 300 s. The chip was regenerated with 3 M MgCl₂ for 30 s at a flow rate of 30 μL/min. The data were analyzed by 1:1 model fitting to obtain affinity constants. Data were acquired using Biacore Control 2.0 software and analyzed using Biacore T200 Evaluation 2.0 software.

human CD47 IgV TEV-His [5] = biological target: T1, human CD47 IgV TEV-His; test: competitive ELISA vs SIRPα ECD-hFc-Biotin 0.1 ug/mL on coated CD47 IgV TEV-His (blocking EC50)
Description: (§1) Experimental procedures: A microplate was coated with 2 μg/mL human CD47 IgV TEV-His at 50 μL per well and incubated at 4° C. for 16 h. The microplate was washed once and tapped dry, blocked with 1% BSA (in PBS) at 300 μL per well, incubated at 37° C. for 2 h, and washed three times and tapped dry. […] Two duplicate wells were set for the above concentrations, with a final volume of 50 μL per well, and the plate was incubated for 10 min. […] The microplate was washed three times and tapped dry. 50 μL of SA-HRP (KPL, 14-30-00) working solution was added to each well, and the microplate was incubated at 37° C. for 30 min. The microplate was washed four times and tapped dry. 50 μL of TMB chromogenic solution was added to each well for color developing for 5 min at room temperature in the dark, and then the color development was terminated by adding 50 μL of stop solution to each well. Then the microplate was put into a microplate reader immediately, and the OD value of each well in the microplate was read at 450 nm. The data were analyzed and processed by SoftMax Pro 6.2.1.

[6] = biological target: T2, CD47 on the cell membrane surface of …; test: flow cytometry on Raji cells
[7] = biological target: T2, CD47 on the cell membrane surface of …; test: flow cytometry competition vs SIRPα-ECD-mFc on LOVO cells
[8] = biological target: T2, CD47 on the cell membrane surface of …; test: flow cytometry on human RBCs
Description: Fresh blood was mixed well with blood buffer (blood dilution ratio of 1:3 after concentration). […] The tubes were each centrifuged at 1550 rpm for 30 min after balancing. The PBMCs in the middle buffy coat layer were pipetted. The blood buffer was added in a volume ratio of cells to blood buffer of 1:4. The resulting mixture was well mixed and centrifuged at 950 rpm for 15 min, and the supernatant was discarded. 20 mL of the blood buffer was added to resuspend PBMCs. The resulting suspension was centrifuged, and the supernatant was discarded. Centrifugation was performed, followed by two washings. […] Centrifugation was performed and the supernatant was discarded. […] 500 μL of 1% PBSA was added to each tube, followed by centrifugation at 5600 rpm for 5 min. The supernatant was discarded. 100 μL of the antibody with a corresponding concentration was added (final concentrations: 300, 100, 10, 1, 0.1, 0.01, 0.001 nM) to each tube, and a Blank (PBSA+ cells) and an isotype control were designed, followed by incubation on ice for 1 h. […] 200 μL of 1% washing buffer was added to each tube to resuspend the cells, and fluorescence signals were detected with FITC channel on a flow cytometer. The results were analyzed using Flowing software, and curve fittings were performed separately using MFI and sample concentration on GraphPad prism 5 to calculate EC50.

human CD47 IgV TEV-His [9] = biological target: T1, human CD47 IgV TEV-His; test: indirect ELISA, coated CD47 IgV TEV-His 2 ug/mL
Description: Experimental procedures: A microplate was coated with 2 μg/mL human CD47 IgV TEV-His and incubated at 4° C. for 12 h. The antigen-coated microplate was rinsed 3 times with PBS, and then blocked with 1% BSA in PBS for 2 h. The microplate was rinsed 3 times with PBS. The antibody serially diluted with PBST solution was added into the wells of the microplate, the dilution gradients for the antibody detailed in Table 2. The microplate containing the test antibody was incubated at 37° C. for 30 min, and then washed 3 times with PBST. […] The microplate was washed 3 times with PBST. […] Then the microplate was put into a microplate reader immediately, and the OD value of each well in the microplate was read at 450 nm. The data were analyzed by SoftMax Pro 6.2.1.

[10] = biological target: T2, CD47 on the cell membrane surface of …; test: flow cytometry competition vs SIRPα-mFc 20 nM on LOVO cells
Description: The cell pellets were resuspended in 1% PBSA and counted, and the viability was determined. The cell concentration was adjusted with 1% PBSA into a suitable range, and the cells were transferred in groups into 1.5 mL tubes at 500 μL per tube, for a total of 0.3 million cells. The cells were centrifuged at 5600 rpm for 5 min, and the supernatant was discarded. The antibody serially diluted was added (final concentrations in descending order: 300, 100, 10, 1, 0.3, 0.1, 0.01, 0.001, 0.0001 nM), and a blank control (100 μL of 1% PBSA+ cells) and an isotype control (human hIgG) were set up, followed by incubation on ice for 30 min. […] 1% PBSA was added, followed by centrifugation at 5600 rpm for 5 min, and the supernatant was discarded. 100 μL of FITC goat anti-mouse IgG (1:500 dilution) was added to each tube, followed by incubation on ice for 40 min in the dark. 1% PBSA was added, followed by centrifugation at 5600 rpm for 5 min, and the supernatant was discarded. 200 μL of 1% PBSA was added to resuspend the cell pellets, and the suspensions were transferred to flow cytometry tubes. Fluorescence signals were detected with FITC channel on a flow cytometer. Curve fittings were performed separately using MFI and sample concentration to calculate EC50.

[11] = biological target: T2, CD47 on the cell membrane surface of …; test: flow cytometry on Raji cells; remark: listed apart in the source
Description: Raji cells in the log phase were collected, centrifuged, and washed. The cell pellets were resuspended in 1% PBSA and counted, and the viability was determined. The cells were transferred to 1.5 mL tubes according to 3.0×10⁵ cells/500 μL/tube, and centrifuged at 5600 rpm for 5 min, and the supernatant was discarded. 100 μL of the corresponding antibody serially diluted was added to each tube according to the experimental design, and a blank group (PBSA+ cells) and an isotype control (hIgG) group were designed, followed by incubation on ice for 1 h. Then 1% PBSA was added, followed by centrifugation at 5600 rpm for 5 min, and the supernatant was discarded. 100 μL of FITC goat anti-human IgG (1:500) was added to each tube, and the mixtures were well mixed and incubated on ice for 30 min in the dark. 500 μL of 1% PBSA was added, followed by centrifugation at 5600 rpm for 5 min, and the supernatant was discarded. 1% PBSA was added to each tube to resuspend the cells, and fluorescence signals were detected with FITC channel on a flow cytometer. Curve fittings were performed separately using MFI and sample concentration to calculate EC50.

human CD47 IgV TEV-His [12] = biological target: T1, human CD47 IgV TEV-His; test: competitive ELISA vs SIRPα ECD-hFc-Biotin 0.1 ug/mL on coated CD47 IgV TEV-His (blocking EC50); remark: listed apart in the source
Description: as §1

B1: murine antibody 6F7 (antibody, V domains shown)
VH: QVQLQQPGAELVRPGASVKLSCKASGYTFTSYWMNWVKQRPGQGLEWIGMIDPSDSETHNNQMFKDKATLTVDKSSNTAYMHLSSLTSEDSAVYHCARLYRWYFDVWGAGTTVTVSS
VL: NIVMTQSPKSMSMSLGERVTLSCKASEIVGTYVSWFQQKPHQSPKLLIYGASNRYTGVPDRFTGSGSATDFTLTISNVQAEDLADYHCGQSYNFPYTFGGGTKLEIK
notes: Murine hybridoma antibody purified on protein A; also called monoclonal antibody secreted by hybridoma cell line LT012 (CD47-6F7)
Human CD47 IgV TEV-His [1]
  Kd: 0.652 nM
  koff: 0.000256 s⁻¹
  kon: 393000 M⁻¹ s⁻¹

B2: 6F7 H1L1(hG4) (antibody, human IgG4, kappa)
heavy: not shown
light: NIVMTQSPATMSMSPGERVTLSCRASEIVGTYVSWFQQKPGQAPRLLIYGASNRYTGVPARFSGSGSGTDFTLTISSVQPEDLADYHCGQSYNFPYTFGGGTKLEIKRTVAAPSVFIFPPSDEQLKSGTASVVCLLNNFYPREAKVQWKVDNALQSGNSQESVTEQDSKDSTYSLSSTLTLSKADYEKHKVYACEVTHQGLSSPVTKSFNRGEC
notes: Humanized 6F7
[2]
  EC50: 0.017 nM
[3]
  EC50: 0.02 nM
Human CD47 IgV TEV-His [4]
  Kd: 0.152 nM
Human CD47 IgV TEV-His [5]
  EC50: 0.194 nM
[6]
  EC50: 0.32 nM
[7]
  EC50: 0.1 nM
[8]
  EC50: 0.6 nM

B3: 6F7 H1L1(G1M) (antibody, human IgG1, kappa, L234A L235A)
heavy: not shown
light: NIVMTQSPATMSMSPGERVTLSCRASEIVGTYVSWFQQKPGQAPRLLIYGASNRYTGVPARFSGSGSGTDFTLTISSVQPEDLADYHCGQSYNFPYTFGGGTKLEIKRTVAAPSVFIFPPSDEQLKSGTASVVCLLNNFYPREAKVQWKVDNALQSGNSQESVTEQDSKDSTYSLSSTLTLSKADYEKHKVYACEVTHQGLSSPVTKSFNRGEC
notes: Humanized 6F7; also called 6F7 H1L1(hG1DM)
Human CD47 IgV TEV-His [9]
  EC50: 0.037 nM
[10]
  EC50: 0.16 nM
[11]
  EC50: 0.013 nM
Human CD47 IgV TEV-His [12]
  EC50: 0.274 nM
